Key:
[1] = molecular target: glycosylated human cystatin E (human) (UniProt Q15828); experiment: SEC; S75 10/300 GL, 20 mM citric acid pH 5.5, 100 mM NaCl; sample incubated 10 min at ≥70 °C (70, 80 or 85 °C), pH 5.5, then chilled on ice; monomer to dimer
[2] = molecular target: human cystatin E, full-length wild type, monomeric (human) (UniProt Q15828); experiment: as above
[3] = molecular target: human legumain, wild type, activated (human) (UniProt Q99538); experiment: enzyme inhibition kinetics (Morrison equation for tight binding inhibitors); 50 mM citric acid pH 5.5, 100 mM NaCl, 0.05% Tween 20; 100 μM Z-AAN-AMC, 0.01 to 5 nM hCE, 2 nM legumain, 37 °C; triplicates
Sequence of human legumain, wild type, activated (human) (Q99538 18-323): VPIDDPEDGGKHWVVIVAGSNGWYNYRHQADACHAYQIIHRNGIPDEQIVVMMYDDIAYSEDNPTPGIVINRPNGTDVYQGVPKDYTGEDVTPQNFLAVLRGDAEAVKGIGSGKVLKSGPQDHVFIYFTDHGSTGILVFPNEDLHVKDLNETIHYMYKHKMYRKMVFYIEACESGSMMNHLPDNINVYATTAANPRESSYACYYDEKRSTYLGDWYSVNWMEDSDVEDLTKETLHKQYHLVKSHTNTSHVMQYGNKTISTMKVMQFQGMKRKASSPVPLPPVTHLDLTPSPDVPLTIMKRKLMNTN

[4] = molecular target: human cystatin E, full-length wild type, monomeric (human) (UniProt Q15828); experiment: thioflavin T fluorescence; fibril formation after 10 min at 80 °C, 10 mg/ml, 50 mM citric acid, 100 mM NaCl (pH 3–6) or 50 mM Tris, 100 mM NaCl (pH 7.0); ThT fluorescence at 482 nm
[5] = molecular target: human cystatin E, full-length wild type, monomeric (human) (UniProt Q15828); experiment: SEC; S75 10/300 GL; WT cystatin E incubated at 60 °C in citric acid buffer at pH 3.0 before injection; monomer to dimer
[6] = molecular target: human legumain, wild type, activated (human) (UniProt Q99538); experiment: SEC; S200 10/300 GL; legumain (0.5 mg/ml) incubated with dimeric hCE 1:1 (1 AEP and 1 hCE dimer) or monomeric hCE 1:2 at pH 5.5 for 10 min on ice; fractions on SDS-PAGE; details: scale: hCE chains per legumain
[7] = molecular target: the molecule itself; experiment: SEC; S75 10/300 GL, 20 mM citric acid pH 5.5, 100 mM NaCl, 250 μl sample; no destabilising heat (ΔhCE kept at 4 °C and 37 °C before injection); oligomerisation state
[8] = molecular target: the molecule itself; experiment: SEC; S75 10/300 GL, 20 mM citric acid pH 5.5, 100 mM NaCl; sample incubated 10 min at ≥70 °C (70, 80 or 85 °C), pH 5.5, then chilled on ice; monomer to dimer

Molecule: glycosylated human cystatin E (from UniProt Q15828 29-149) (natural protein)
- stoichiometry N [1]: 2

Molecule: human cystatin E, full-length wild type, monomeric (from UniProt Q15828 29-149) (natural protein)
- percent converted to the dimer at 70 °C [2]: > 90%
- stoichiometry N [2]: 2
- Ki [3]: 0.0107 nM
- fold increase in ThT signal after incubation at pH 3.0 [4]: 4 fold
- stoichiometry N [5]: 2

Molecule: dimeric human cystatin E (domain-swapped dimer) (from UniProt Q15828 29-149) (complex)
- stoichiometry N [6]: 2
- Ki [3]: 0.0135 nM

B1: N-terminally truncated human cystatin E, Δ(Arg4–Leu13)hCE (domain or fragment)
chain: MELSPDDPQVQKAAQAAVASYNMGSNSIYYFRDTHIIKAQSQLVAGIKYFLTMEMGSTDCRKTRVTGDHVDLTTCPLAAGAQQEKLRCDFEVLVVPWQNSSQLLKHNCVQM
- stoichiometry N [7]: 2

B2: human cystatin C, wild type (natural protein, UniProt P01034 27-146, looked up)
chain: SSPGKPPRLVGGPMDASVEEEGVRRALDFAVGEYNKASNDMYHSRALQVVRARKQIVAGVNYFLDVELGRTTCTKTQPNLDNCPFHDQPHLKRKAFCSFQIYAVPWQGTMTLSKSTCQDA
notes: N terminus Ser1 after removal of the pelB leader. numbers count on: the mature protein; Called 'untagged hCC' in the pull-down (it has no Strep-tag), while the methods give a C-terminal His6 tag for the expression constructs; also called hCC; WT cystatin C; source: E. coli Bl21(DE3), periplasm (pelB leader), purified (nickel-nitrilotriacetic acid resin, SEC)
- stoichiometry N [8]: 2

Source: paper PMC6109925, “Structural and functional analysis of cystatin E reveals enzymologically relevant dimer and amyloid fibril states” (The Journal of Biological Chemistry, 2018)
